For two molecules, binding signal and Kd results are on record in article PMC7826288, “Dynamics of TRF1 organizing a single human telomere” (Nucleic Acids Research, 2020).

In general, Kd refers to the constant that tells how readily two partners part at equilibrium.

Data set [1] deals with T1, TRF1 (human, UniProt P54274). The data set can be described thus: single-molecule magnetic tweezers. The note with it: delta-delta G of fork opening with vs without 10 nM TRF1 (61 vs 50 kBT); 20 mM HEPES pH 7.5, 100 mM NaCl, 1 mM EDTA, 0.0063% Tween-20; EMSA 30 min on ice, 5% PAGE in 1x TBE at 4 C; magnetic tweezers at 23 C.
The target of data set [2] is T1, TRF1. The data set can be described thus: EMSA; dimer concentration; Hill fit; 10 nM DNA, n=3; 20 mM HEPES pH 7.5, 100 mM NaCl, 1 mM EDTA, 0.0063% Tween-20; EMSA 30 min on ice, 5% PAGE in 1x TBE at 4 C; magnetic tweezers at 23 C. The note with it: protein: recombinant; tags: trx tag (modified pET32a, Ni-NTA) removed with 3C protease; chain copies: 2; label: FAM on strand 2 (printed as FAM-CTAACCC..., 5'); blunt. A general note: A gel shift assay detects complexes by their altered migration in electrophoresis.

T1 sequence (P54274 3-439): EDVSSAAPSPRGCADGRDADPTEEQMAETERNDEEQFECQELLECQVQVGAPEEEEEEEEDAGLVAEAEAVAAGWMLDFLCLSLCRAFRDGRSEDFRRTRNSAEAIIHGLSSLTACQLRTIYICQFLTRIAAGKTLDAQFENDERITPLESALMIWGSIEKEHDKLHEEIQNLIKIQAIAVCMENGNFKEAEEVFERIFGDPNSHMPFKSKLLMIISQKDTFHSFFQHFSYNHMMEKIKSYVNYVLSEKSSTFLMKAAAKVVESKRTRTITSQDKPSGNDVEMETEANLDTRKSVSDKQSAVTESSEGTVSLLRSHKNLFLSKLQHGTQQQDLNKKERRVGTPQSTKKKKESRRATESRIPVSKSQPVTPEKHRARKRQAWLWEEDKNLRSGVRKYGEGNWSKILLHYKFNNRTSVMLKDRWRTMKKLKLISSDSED

“short telomeric hairpin (13 TTAGGG repeats)” gave a binding signal with TRF1 [1] of 11 kBT.

B1: telomeric dsDNA (two TTAGGG sites) (dsDNA)
DNA 1: GTTAGGGTTAGGGTTAG
DNA 2: CTAACCCTAACCCTAAC
B1: the Kd in the data set with TRF1 [2] was found to be 17.5 ± 0.7 nM.
